This is an account of results in paper PMC3844621.

For orientation: Kd means the equilibrium constant for the complex coming apart.

Test [1] has as its target T1 scTCR with wild-type CDR loops (stabilized version), Y51A, soluble (human). Nature of the test: SPR. For orientation: SPR reads the build-up and loss of mass on a sensor chip optically.
The target of test [2] is T1-S18.45 Q31A scTv, yeast-displayed (human). The experiment in a line: flow cytometry on cells. (In general: A flow cytometer gives signals particle by particle.)

As for “MART-1/HLA-A2 of the steady-state SPR (peptide variant not stated) (from UniProt P61769 21-119) (peptide-MHC)”, the Kd in test [1] was more than 1000 µM.

In the case of “MART-1/HLA-A2-biotin monomer (UV peptide exchange) (from UniProt P61769 21-119) (peptide-MHC)”, the other in test [2] is more than 15 fold.
